Positions count from the first letter of the chain named.
B1: TCR 50 (codon optimized, cysteine modified version) (TCR, V domains shown)
V domain 1: GEDVEQSLFLSVREGDSSVINCTYTDSSSTYLYWYKQEPGAGLQLLTYIFSNMDMKQDQRLTVLLNKKDKHLSLRIADTQTGDSAIYFCAESPPGTYKYIFGTGTRLKVLA
V domain 2: DSGVTQTPKHLITATGQRVTLRCSPRSGDLSVYWYQQSLDQGLQFLIHYYNGEERAKGNILERFSAQQFPDLHSELNLSSLELGDSALYFCASSATRDAYGYTFGSGTRLTVVE
B2: TCR 55 (codon optimized, cysteine modified version) (TCR)
TCR alpha: GEDVEQSLFLSVREGDSSVINCTYTDSSSTYLYWYKQEPGAGLQLLTYIFSNMDMKQDQRLTVLLNKKDKHLSLRIADTQTGDSAIYFCAVPSGATNKLIFGTGTLLAVQPNIQNPDPAVYQLRDSKSSDKSVCLFTDFDSQTNVSQSKDSDVYITDKCVLDMRSMDFKSNSAVAWSNKSDFACANAFNNSIIPEDTFFPSPESSCDVKLVEKSFETDTNLNFQNLSVIGFRILLLKVAGFNLLMTLRLWSS
TCR beta: EPEVTQTPSHQVTQMGQEVILRCVPISNHLYFYWYRQILGQKVEFLVSFYNNEISEKSEIFDDQFSVERPDGSNFTLKIRSTKLEDSAMYFCASTTRSSYEQYFGPGTRLTVTEDLKNVFPPEVAVFEPSEAEISHTQKATLVCLATGFYPDHVELSWWVNGKEVHSGVCTDPQPLKEQPALNDSRYCLSSRLRVSATFWQNPRNHFRCQVQFYGLSENDEWTQDRAKPVTQIVSAEAWGRADCGFTSESYQQGVLSATILYEILLGKATLYAVLVSALVLMAMVKRKDSRG
B3: TCR 48 (codon optimized, cysteine modified version) (TCR, V domains shown)
V domain 1: QKEVEQDPGPLSVPEGAIVSLNCTYSNSAFQYFMWYRQYSRKGPELLMYTYSSGNKEDGRFTAQVDKSSKYISLFIRDSQPSDSATYLCAMRIQGAQKLVFGQGTRLTINP
V domain 2: EPEVTQTPSHQVTQMGQEVILRCVPISNHLYFYWYRQILGQKVEFLVSFYNNEISEKSEIFDDQFSVERPDGSNFTLKIRSTKLEDSAMYFCASTGRVSYEQYFGPGTRLTVTE
B4: TCR 51 (codon optimized, cysteine modified version) (TCR, V domains shown)
V domain 1: QKEVEQNSGPLSVPEGAIASLNCTYSDRGSQSFFWYRQYSGKSPELIMSIYSNGDKEDGRFTAQLNKASQYVSLLIRDSQPSDSATYLCAVNMRGGGSNYKLTFGKGTLLTVNP
V domain 2: B3 V domain 2 with S94I, T95A, G96S
B5: TCR 53 (codon optimized, cysteine modified version) (TCR, V domains shown)
V domain 1: AQSVAQPEDQVNVAEGNPLTVKCTYSVSGNPYLFWYVQYPNRGLQFLLKYITGDNLVKGSYGFEAEFNKSQTSFHLKKPSALVSDSALYFCAVRDFGSGTYKYIFG
V domain 2: GAGVSQSPRYKVTKRGQDVALRCDPISGHVSLYWYRQALGQGPEFLTYFNYEAQQDKSGLPNDRFSAERPEGSISTLTIQRTEQRDSAMYRCASSGSGTSGYNEQFFGPGTRLTVLE
B6: modified version of TCR 13 (codon optimized, cysteine modified) (TCR, V domains shown)
V domain 1: AQSVTQLDSHVSVSEGTPVLLRCNYSSSYSPSLFWYVQHPNKGLQLLLKYTSAATLVKGINGFEAEFKKSETSFHLTKPSAHMSDAAEYFCVVRGGKLIFGQGTELSVKP
V domain 2: GAGVSQSPRYKVAKRGQDVALRCDPISGHVSLFWYQQALGQGPEFLTYFQNEAQLDKSGLPSDRFFAERPEGSVSTLKIQRTQQEDSAVYLCASSPTGTERELFFGEGSRLTVLE
B7: TCR 30 (codon optimized, cysteine modified version) (TCR, V domains shown)
V domain 1: DAKTTQPPSMDCAEGRAANLPCNHSTISGNEYVYWYRQIHSQGPQYIIHGLKNNETNEMASLIITEDRKSSTLILPHATLRDTAVYYCIVRGTSVLQGNEKLTFGTGTRLTIIP
V domain 2: EPEVTQTPSHQVTQMGQEVILRCVPISNHLYFYWYRQILGQKVEFLVSFYNNEISEKSEIFDDQFSVERPDGSNFTLKIRSTKLEDSAMYFCASSRQPSSGNTIYFGEGSWLTVVE
B8: TCR 28 (codon optimized, cysteine modified version) (TCR, V domains shown)
V domain 1: RKEVEQDPGPFNVPEGATVAFNCTYSNSASQSFFWYRQDCRKEPKLLMSVYSSGNEDGRFTAQLNRASQYISLLIRDSKLSDSATYLCVVRGGGTSYGKLTFGQGTILTVHP
V domain 2: DVKVTQSSRYLVKRTGEKVFLECVQDMDHENMFWYRQDPGLGLRLIYFSYDVKMKEKGDIPEGYSVSREKKERFSLILESASTNQTSMYLCASSLWGRSSGNTIYFGEGSWLTVVE
B9: TCR 20 (codon optimized, cysteine modified version) (TCR, V domains shown)
V domain 1: AQKVTQAQTEISVVEKEDVTLDCVYETRDTTYYLFWYKQPPSGELVFLIRRNSFDEQNEISGRYSWNFQKSTSSFNFTITASQVVDSAVYFCALWTGANNLFFGTGTRLTVIP
V domain 2: GAVVSQHPSRVICKSGTSVKIECRSLDFQATTMFWYRQFPKQSLMLMATSNEGSKATYEQGVEKDKFLINHASLTLSTLTVTSAHPEDSSFYICSASSLARRSYEQYFGPGTRLTVTE
B10: TCR 16 (codon optimized, cysteine modified version) (TCR, V domains shown)
V domain 1: KQEVTQIPAALSVPEGENLVLNCSFTDSAIYNLQWFRQDPGKGLTSLLLIQSSQREQTSGRLNASLDKSSGRSTLYIAASQPGDSATYLCAVRPANNNDMRFGAGTRLTVKP
V domain 2: DVKVTQSSRYLVKRTGEKVFLECVQDMDHENMFWYRQDPGLGLRLIYFSYDVKMKEKGDIPEGYSVSREKKERFSLILESASTNQTSMYLCASSLWGRSNQPQHFGDGTRLSILE
B11: TCR 19 (codon optimized, cysteine modified version) (TCR, V domains shown)
V domain 1: AQKITQTQPGMFVQEKEAVTLDCTYDTSDQSYGLFWYKQPSSGEMIFLIYQGSYDEQNATEGRYSLNFQKARKSANLVISASQLGDSAMYFCAMRENTGTASKLTFGTGTRLQVTL
V domain 2: B10 V domain 2 with L95S, R98Q, N100T, Q101G, P102E, H104Y, D107P, S112T, I113V, L114T
B12: TCR 25 (codon optimized, cysteine modified version) (TCR, V domains shown)
V domain 1: AQKITQTQPGMFVQEKEAVTLDCTYDTSDQSYGLFWYKQPSSGEMIFLIYQGSYDEQNATEGRYSLNFQKARKSANLVISASQLGDSAMYFCAMREGSLTGGGNKLTFGTGTQLKVEL
V domain 2: B10 V domain 2 with R98Q
B13: TCR 29 (codon optimized, cysteine modified version) (TCR, V domains shown)
V domain 1: B11 V domain 1 with E96L
V domain 2: DGGITQSPKYLFRKEGQNVTLSCEQNLNHDAMYWYRQDPGQGLRLIYYSQIVNDFQKGDIAEGYSVSREKKESFPLTVTSAQKNPTAFYLCASSPWGRATNEQFFGPGTRLTVLE
B14: TCR 15 (codon optimized, cysteine modified version) (TCR, V domains shown)
V domain 1: AQKITQTQPGMFVQEKEAVTLDCTYDTSDQSYGLFWYKQPSSGEMIFLIYQGSYDEQNATEGRYSLNFQKARKSANLVISASQLGDSAMYFCAMKPGGYNKLIFGAGTRLAVHP
V domain 2: DAGVIQSPRHEVTEMGQEVTLRCKPISGHNSLFWYRQTMMRGLELLIYFNNNVPIDDSGMPEDRFSAKMPNASFSTLKIQPSEPRDSAVYFCASSLVGRSRTEQYFGPGTRLTVTE
B15: TCR 26 (codon optimized, cysteine modified version) (TCR, V domains shown)
V domain 1: B14 V domain 1 with K95R, P96D, G97A, G98R, Y99N, K101D, L102M, I103R, A111T, H113K
V domain 2: NAGVTQTPKFRVLKTGQSMTLLCAQDMNHEYMYWYRQDPGMGLRLIHYSVGEGTTAKGEVPDGYNVSRLKKQNFLLGLESAAPSQTSVYFCASSYYASGRNYEQYFGPGTRLTVTE

What follows are binders tested against T1, HLA-A2/E7 (11-19) tetramer (human; HPV 16) (assay: tetramer flow cytometry; transfected 1:1 CD4+ and CD4+/CD8+ Jurkat-derived cells;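 note: cells transiently transfected with TCR plasmids, stained 48 h later with HLA-A*02:01 peptide-MHC tetramer plus anti-CD8 antibody, read by flow cytometry to assess CD8-independent tetramer binding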).
T1 construct: also called E7(11-19) peptide-MHC tetramer; E7 (11-19)-loaded tetramer
Protocol: (§1) For transfection, the CD4+ and CD4+/CD8+ cell mixtures were transiently transfected with TCR-encoding plasmids and 48 hours after transfection, cells were assessed by flow cytometry for (1) binding of the target peptide in the context of an MHC molecule (HLA:A02:01) by staining with an E6(29-38) peptide- or an E7(11-19) peptide-MHC tetramer reagent, and/or (2) CD8+ independent binding of the target by co-staining the tetramer-labeled cells with an anti-CD8 antibody.

Row | Binder | % cells in E7 tet+/CD8+ quadrant [%] | % cells in E7 tet+/CD8- quadrant [%] | % cells in E7 tet-/CD8+ quadrant [%] | % cells in E7 tet-/CD8- quadrant [%]
1 | B1 | 3.28 | 0.25 | 30.7 | 65.8
2 | B2 | 1.45 | 0.28 | 50.4 | 47.9
3 | B3 | 5.36 | 1.29 | 37 | 56.4
4 | B4 | 5.7 | 2.06 | 27.5 | 64.7
5 | B5 | 3.35 | 0.43 | 28.7 | 67.5

The binders below were run against T2, HLA-A2/E6 (29-38) tetramer (human; HPV 16) (assay: tetramer flow cytometry; transfected Jurkat-derived cells, CD8+ population).
T2 construct: also called E6(29-38) peptide-MHC tetramer; E6(29-38)-loaded tetramer
Protocol: as §1

Row | Binder | % cells in E6 tet+/CD8+ quadrant [%] | % cells in E6 tet+/CD8- quadrant [%] | % cells in E6 tet-/CD8+ quadrant [%] | % cells in E6 tet-/CD8- quadrant [%]
6 | B6 | 38.6 | 0.064 | 59.5 | 1.82

What follows are binders tested against T2, HLA-A2/E6 (29-38) tetramer (assay: tetramer flow cytometry; transfected 1:1 CD4+ and CD4+/CD8+ Jurkat-derived cells;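 note: cell mixtures transiently transfected with TCR-encoding plasmids, analysed by flow cytometry 48 h later after HLA-A*02:01 E6 tetramer staining combined with anti-CD8 antibody co-staining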).
Protocol: as §1

Row | Binder | % cells in E6 tet+/CD8+ quadrant [%] | % cells in E6 tet+/CD8- quadrant [%] | % cells in E6 tet-/CD8+ quadrant [%] | % cells in E6 tet-/CD8- quadrant [%]
7 | B7 | 31 | 0.74 | 13.9 | 54.3
8 | B8 | 13.1 | 0.15 | 31.4 | 55.4
9 | B9 | 38.2 | 34.1 | 5.17 | 22.6
10 | B10 | 35.6 | 28.2 | 9.51 | 26.7
11 | B11 | 35.5 | 20.8 | 7.71 | 36
12 | B12 | 34 | 14.7 | 10.2 | 41.1
13 | B13 | 35.6 | 44.5 | 2 | 17.9
14 | B14 | 21.4 | 40.2 | 13.6 | 24.8
15 | B15 | 42.3 | 47.4 | 1.58 | 8.73

Reference: patent US20190225692A1 (JUNO THERAPEUTICS, published 2019)
